Measurements: patent US20250163182A1 (Janssen / Centocor, published 2025)

T1: cynomolgus monkey ENPP3 (cynomolgus monkey, UniProt A0A2K5TKP4 46-874)
T1 construct: also called cyno ENPP3
T1 sequence: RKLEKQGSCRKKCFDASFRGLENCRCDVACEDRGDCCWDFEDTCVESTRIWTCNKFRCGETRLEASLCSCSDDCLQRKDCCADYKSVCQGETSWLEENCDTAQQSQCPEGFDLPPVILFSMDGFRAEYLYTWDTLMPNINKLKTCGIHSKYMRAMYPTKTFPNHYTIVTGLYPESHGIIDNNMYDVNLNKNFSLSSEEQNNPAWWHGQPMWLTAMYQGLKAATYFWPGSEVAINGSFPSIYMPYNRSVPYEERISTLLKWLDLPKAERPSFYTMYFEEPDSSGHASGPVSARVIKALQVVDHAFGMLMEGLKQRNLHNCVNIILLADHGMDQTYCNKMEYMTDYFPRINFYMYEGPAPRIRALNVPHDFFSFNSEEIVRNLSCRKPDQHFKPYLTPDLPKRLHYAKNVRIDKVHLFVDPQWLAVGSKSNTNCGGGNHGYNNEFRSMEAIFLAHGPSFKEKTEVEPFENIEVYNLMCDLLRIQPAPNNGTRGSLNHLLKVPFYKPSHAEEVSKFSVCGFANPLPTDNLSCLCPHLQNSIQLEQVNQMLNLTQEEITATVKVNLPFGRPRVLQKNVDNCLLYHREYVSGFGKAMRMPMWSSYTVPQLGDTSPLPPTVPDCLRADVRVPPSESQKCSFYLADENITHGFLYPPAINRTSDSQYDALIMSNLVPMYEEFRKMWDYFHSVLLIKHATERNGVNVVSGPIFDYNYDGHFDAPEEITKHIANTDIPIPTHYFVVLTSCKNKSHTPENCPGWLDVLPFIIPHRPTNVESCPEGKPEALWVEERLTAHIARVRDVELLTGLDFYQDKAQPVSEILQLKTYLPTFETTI

T2: human ENPP3 (human, UniProt O14638 46-875, limits assumed)
T2 construct: neither the construct nor the method is stated; also called ectonucleotide pyrophosphatase/phosphodiesterase family member 3
T2 sequence (looked up): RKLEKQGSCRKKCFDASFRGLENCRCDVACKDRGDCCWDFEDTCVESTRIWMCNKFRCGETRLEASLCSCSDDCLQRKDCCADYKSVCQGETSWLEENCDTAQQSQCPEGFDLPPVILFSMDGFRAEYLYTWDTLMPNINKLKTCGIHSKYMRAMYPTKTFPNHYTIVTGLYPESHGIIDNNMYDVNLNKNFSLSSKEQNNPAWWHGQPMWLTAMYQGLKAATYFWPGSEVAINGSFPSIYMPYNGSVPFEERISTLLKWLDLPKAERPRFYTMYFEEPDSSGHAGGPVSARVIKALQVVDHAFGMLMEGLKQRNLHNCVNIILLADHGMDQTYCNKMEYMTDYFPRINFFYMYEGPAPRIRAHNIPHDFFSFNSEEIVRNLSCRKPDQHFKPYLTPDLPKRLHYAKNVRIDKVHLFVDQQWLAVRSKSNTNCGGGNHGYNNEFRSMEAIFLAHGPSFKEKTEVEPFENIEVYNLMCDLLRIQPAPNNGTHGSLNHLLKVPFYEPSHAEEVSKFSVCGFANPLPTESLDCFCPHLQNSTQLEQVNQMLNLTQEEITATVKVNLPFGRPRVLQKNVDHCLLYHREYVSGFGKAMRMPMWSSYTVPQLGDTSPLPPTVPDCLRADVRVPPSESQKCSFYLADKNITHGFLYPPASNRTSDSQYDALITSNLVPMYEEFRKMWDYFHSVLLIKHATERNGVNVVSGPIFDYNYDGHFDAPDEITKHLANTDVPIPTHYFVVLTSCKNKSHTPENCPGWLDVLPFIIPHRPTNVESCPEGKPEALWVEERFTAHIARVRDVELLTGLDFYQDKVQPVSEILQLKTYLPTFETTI

T3: ENPP1 on CHOK1 cells (UniProt P22413 1-925, limits assumed)
T3 construct: whole, on cells; also called ectonucleotide pyrophosphatase/phosphodiesterase family member 1; CHO ENPP1 OE
T3 sequence (looked up): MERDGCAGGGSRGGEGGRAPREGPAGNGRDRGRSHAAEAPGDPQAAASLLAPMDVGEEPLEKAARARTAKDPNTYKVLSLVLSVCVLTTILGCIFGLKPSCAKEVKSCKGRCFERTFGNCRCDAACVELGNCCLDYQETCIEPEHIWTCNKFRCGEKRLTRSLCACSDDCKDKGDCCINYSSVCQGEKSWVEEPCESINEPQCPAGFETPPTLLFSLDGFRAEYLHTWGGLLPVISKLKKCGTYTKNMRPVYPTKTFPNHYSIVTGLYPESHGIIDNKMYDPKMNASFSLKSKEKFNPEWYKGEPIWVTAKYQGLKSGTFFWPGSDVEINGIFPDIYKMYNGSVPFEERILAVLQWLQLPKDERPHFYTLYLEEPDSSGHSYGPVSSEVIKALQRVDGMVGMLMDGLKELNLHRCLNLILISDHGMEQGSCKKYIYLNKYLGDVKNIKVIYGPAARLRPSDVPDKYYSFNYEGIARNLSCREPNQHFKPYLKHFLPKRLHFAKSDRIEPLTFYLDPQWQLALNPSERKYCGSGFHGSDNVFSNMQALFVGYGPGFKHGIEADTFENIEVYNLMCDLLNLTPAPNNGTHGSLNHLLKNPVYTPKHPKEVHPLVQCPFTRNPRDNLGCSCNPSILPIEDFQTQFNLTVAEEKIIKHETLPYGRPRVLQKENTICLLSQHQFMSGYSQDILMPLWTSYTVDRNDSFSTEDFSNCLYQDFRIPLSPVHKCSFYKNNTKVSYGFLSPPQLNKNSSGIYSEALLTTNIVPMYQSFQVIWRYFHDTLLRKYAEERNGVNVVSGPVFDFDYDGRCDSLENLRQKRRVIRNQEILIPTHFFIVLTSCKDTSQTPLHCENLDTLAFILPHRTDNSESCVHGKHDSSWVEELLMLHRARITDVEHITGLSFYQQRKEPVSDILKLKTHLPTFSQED

T4: human ENPP3 on cells (human, UniProt O14638 1-875)
T4 construct: whole, on cells; also called ENPP3 on A704, VMRCRCW, HepG2, TUHR4TKB, TUHR10TKB; CHO-K1 ENPP3 OE
T4 sequence (looked up): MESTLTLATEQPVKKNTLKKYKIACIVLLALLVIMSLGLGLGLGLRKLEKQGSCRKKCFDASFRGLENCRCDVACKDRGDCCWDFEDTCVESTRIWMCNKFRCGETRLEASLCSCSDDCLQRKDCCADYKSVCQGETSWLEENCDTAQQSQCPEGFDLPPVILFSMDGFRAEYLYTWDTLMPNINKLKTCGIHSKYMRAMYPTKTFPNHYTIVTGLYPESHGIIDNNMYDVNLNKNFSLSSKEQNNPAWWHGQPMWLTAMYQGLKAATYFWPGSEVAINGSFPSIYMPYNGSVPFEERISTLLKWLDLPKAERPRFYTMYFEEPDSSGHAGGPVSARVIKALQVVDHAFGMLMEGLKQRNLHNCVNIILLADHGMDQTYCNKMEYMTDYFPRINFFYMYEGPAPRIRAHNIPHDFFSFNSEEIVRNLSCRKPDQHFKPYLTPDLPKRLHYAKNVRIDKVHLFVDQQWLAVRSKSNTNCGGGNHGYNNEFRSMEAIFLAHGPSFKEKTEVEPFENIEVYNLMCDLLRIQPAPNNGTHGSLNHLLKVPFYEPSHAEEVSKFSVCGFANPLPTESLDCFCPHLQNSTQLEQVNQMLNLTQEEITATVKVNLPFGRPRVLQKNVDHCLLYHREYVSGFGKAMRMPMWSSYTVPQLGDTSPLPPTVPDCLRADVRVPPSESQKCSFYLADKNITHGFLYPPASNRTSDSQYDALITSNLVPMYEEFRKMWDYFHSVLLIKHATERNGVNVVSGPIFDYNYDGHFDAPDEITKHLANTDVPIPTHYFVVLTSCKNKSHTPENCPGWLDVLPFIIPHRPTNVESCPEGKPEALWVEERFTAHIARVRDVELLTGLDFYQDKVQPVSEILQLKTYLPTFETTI


What was measured:
cynomolgus monkey ENPP3 = target: T1, cynomolgus monkey ENPP3; assay: binding affinity to cyno ENPP3; method not stated
human ENPP3 = target: T2, human ENPP3; assay: binding affinity to human ENPP3; method not stated
ENPP1 on CHOK1 cells = target: T3, ENPP1 on CHOK1 cells; assay: flow cytometry on CHO cells overexpressing ENPP1
ENPP2 on CHOK1 cells = ENPP2 on CHOK1 cells (UniProt Q13822 36-863); assay: flow cytometry on CHO cells overexpressing ENPP2
human ENPP3 on cells = target: T4, human ENPP3 on cells; assay: flow cytometry on CHO cells overexpressing ENPP3
Method: To evaluate the specificity of binders to ENPP3 compared to other ENPP family members, cell binding was assessed on CHOK1 cells overexpressing ENPP1, ENPP2, or ENPP3 (FIG. 9).

Kd (cynomolgus monkey ENPP3) [nM]	Kd (human ENPP3) [nM]	EC50 (read off the curve) (human ENPP3 on cells) [µg/mL]	Binder	binding result (ENPP1 on CHOK1 cells)	binding result (ENPP2 on CHOK1 cells)
109	0.443		NPP3B61 (antibody, V domains shown, mAb from Ablexis Kappa mice) VH: QVQLQESGPGLVRPSETLSLTCTVSGGSISSYYWSWIRQPAGKGLEWIGRIYTTGRIYTSGYTNYNPSLKSRVTMSIDTSKIQFSLRLNSVTAADTAVYWCARGGELFTDGFDIWGQGTMVTVSS VL: EIVMTQSPGTLSLSPGERATLSCRASQSVISTYLAWYQQNPGQAPRLLIYGASSRATGIPDRFSGSGSGTDFTLTISRLEPEDFAVYYCQQYDTSPITFGQGTRLEIK		
12	0.258		NPP3B62 (antibody, V domains shown, mAb from Ablexis Kappa mice) VH: QVQLQESGPGLVRPSETLSLTCTVSGGSISSYYWSWIRQPAGKGLEWIGRIYTTGRIYTSGYTNYNPSLKSRVTMSIDTSKIQFSLRLNSVTAADTAVYWCARGGELFTDGFDIWGQGTMVTVSS VL: EIVMTQSPGTLSLSPGERATLSCRASQSVISTYLAWYQQNPGQAPRLLIYGASSRATGIPDRFSGSGSGTDFTLTISRLEPEDFVVYYCQQYDTSPITFGQGTRLEIK		
		~0.5	NPP3B194 (bispecific antibody, IgG1, ENPP3 Fab as VH1-CH1-hinge-CH2-CH3 IgG1 with hole T366S, L368A, Y407V and VL1-CL; scFv in VL-linker-VH-Fc orientation; also called unstapled (scFv) ENPP3×CD3; ScFv version of NPP3B815) VH: EVQLVESGGGRVKPGGSLRLSCAASGFTFSDYSMNWVRQAPGKGLEWVSSISSISSYVKYADSVKGRFTMSRDNAKNSLFLQMNSLRDEDMAVYYCARGHYFDYWGQGTLVTVSS VL: EIVMTQSPATLSVSPGERATLSCRASQSVSSNLAWYQQKPGLAPRLLIYGASTRATGIPARFSGSGSGTEFTLTISSLQSEDFAVYYCQQYNNWPRTFGQGTKVEIK scFv: EIVLTQSPATLSASPGERVTLSCSASSSVSYMNWYQQKPGQAPRRWIYDSSKLASGVPARFSGSGSGRDYTLTISSLEPEDFAVYYCQQWSRNPPTFGGGTKVEIKGGSEGKSSGSGSESKSTGGSQVQLVQSGAEVKKPGSSVKVSCKASGYTFTRSTMHWVKQAPGQGLEWIGYINPSSAYTNYNQKFQGRVTLTADKSTSTAYMELSSLRSEDTAVYYCASPQVHYDYAGFPYWGQGTLVTVSS	no binding (tested: Log(ug/mL) about 1.1 (about 12 ug/mL))	no binding (tested: Log(ug/mL) about 1.1 (about 12 ug/mL))
		~0.5	NPP3B232 (bispecific antibody, IgG1, Fab-IgG1 (hole) plus scFv-Fc in VL-linker-VH-Fc orientation) VH: QVQLQESGPGLVKPSETLSLTCTVSGGSISNYYWSWIRQPAGKGLEWIGRIYASGSTNYNPSLKSRVTMSVDTSKNQFSLRLRSVTATDTAVYYCAREGYSSTLYDNAFDFWGQGTMVTVSS VL: DIQMTQSPSSVSASVGGRVTITCRASQGISTWLAWYQQKPGKAPKLLIYAASSLQSGVPSRFSGSGSGTDFTLTISSLQPEDFATYYCQQANSFPLTFGGGTKVEIK scFv: EIVLTQSPATLSASPGERVTLSCSASSSVSYMNWYQQKPGQAPRRWIYDSSKLASGVPARFSGSGSGRDYTLTISSLEPEDFAVYYCQQWSRNPPTFGGGTKVEIKGGSEGKSSGSGSESKSTGGSQVQLVQSGAEVKKPGSSVKVSCKASGYTFTRSTMHWVKQAPGQGLEWIGYINPSSAYTNYNQKFQGRVTLTADKSTSTAYMELSSLRSEDTAVYYCASPQVHYDYAGFPYWGQGTLVTVSS	no binding (tested: Log(ug/mL) about 1.1 (about 12 ug/mL))	no binding (tested: Log(ug/mL) about 1.1 (about 12 ug/mL))
		~1	NPP3B239 (bispecific antibody, IgG1, Fab-IgG1 (hole) plus scFv-Fc in VL-linker-VH-Fc orientation; also called NPP3B239.003) VH: EVQLVESGGGLVKPGGSLRLSCAASGFIFSDYSMNWVRQAPGKGLEWVSSISSGSSYIYYADSLKGRFTISRDNAKNSLYLQMSSLRAEDTAVYYCVRGLDYFDYWGQGALVTVSS VL: DIQMTQSPSFLSASVGDRVTITCRASQDISNYLAWYQQKPGRAPKLLIYVASTLQSGVPSRFSGSGSGTEFTLTISSLQPEDFATYYCQQLNSYPRTFGQGTKVEIK scFv: EIVLTQSPATLSASPGERVTLSCSASSSVSYMNWYQQKPGQAPRRWIYDSSKLASGVPARFSGSGSGRDYTLTISSLEPEDFAVYYCQQWSRNPPTFGGGTKVEIKGGSEGKSSGSGSESKSTGGSQVQLVQSGAEVKKPGSSVKVSCKASGYTFTRSTMHWVKQAPGQGLEWIGYINPSSAYTNYNQKFQGRVTLTADKSTSTAYMELSSLRSEDTAVYYCASPQVHYDYAGFPYWGQGTLVTVSS	no binding (tested: Log(ug/mL) about 1.1 (about 12 ug/mL))	no binding (tested: Log(ug/mL) about 1.1 (about 12 ug/mL))
